Source: KR20200090598A
Residue numbers refer to the chain shown, from its start.

B1: MS501 scFv 단백질 (scFv)
scFv: EVQLLESGGGLVQPGGSLRLSCAASGFTFSNYAMSWVRQAPGKGLEWVSGIYPDSGSTYYADSVKGRFTISRDNSKNTLYLQMNSLRAEDTAVYYCARNIYTFDYWGQGTLVTVSSGGGGSGGGGSGGGGSQSVLTQPPSASGTPGQRVTISCSGSSSNIGSNAVSWYQQLPGTAPKLLIYYNNQRPSGVPDRFSGSKSGTSASLAISGLRSEDEADYYCGSWDSSLSGYVFGGGTKLTVLG
B2: MS503 scFv 단백질 (scFv)
scFv: B1 scFv with G50S, D54G, S55D, R98K, I100A, Y101F, N184S, Q185H, S222T
B3: C2G4 scFv 단백질 (scFv)
scFv: EVQLLESGGGLVQPGGSLRLSCAASGFTFSNYAMSWVRQAPGKGLEWVSGIPPDSGSKYYADSVRGRFTVSRDNSKNTLYLQMNSLRAEDTAVYYCAKNMLSFDYWGQGTLVTVSSGGGGSGGGGSGGGGSQSVLTQPPSASGTPGQRVTISCTGSSSNIGSNAVSWYQQLPGTAPKLLIYYNSKRPSGVPDRFSGSKSGTSASLAISGLRSEDEADYYCGSWDPSLNGYVFGGGTKVTVLG

Target: 메소텔린 (MIA PaCa2-MSLN 세포에 과발현) (UniProt Q13421)
Assay: flow cytometry on MIA PaCa2-MSLN cells; 1 μg scFv, anti-6xHis tag detection

Percent of cells bound, > 68%:
B1
B2
B3
